The text below walks through data of PMC4312047.

In experiment [1] the target is PHB domain of B. subtilis YuaG (FloT) (Bacillus subtilis). Description: SDS-PAGE (SDS-resistant oligomers); purified PHB domain without cross-linking on denaturing SDS-PAGE; colloidal Coomassie blue staining or anti-His immunoblot.
For experiment [2] the target is unchanged. Description: SEC; Superose 6 10/300 GL, buffer A (50 mM TrisHCl pH 7.5, 150 mM NaCl, 5 mM MgCl2), RT; column calibrated with the BIO-RAD Gel Filtration Standard; fractions checked by SDS-PAGE and anti-His immunoblot.
For experiment [3] the target is unchanged. Description: native gel or EMSA; blue native PAGE of the isolated PHB domain, according to Wittig et al.

Where “and” joins values, the source holds several entries; their conditions need not be identical. Equal values may be shown once.

For “PHB domain of B. subtilis YuaG (FloT) (domain or fragment)”, the stoichiometry N in experiment [1] is 4 and 8; in experiment [2] it was 14.8; in experiment [3], 14.
